The record followed here is PMC6546417 (Science (New York, N.Y.), 2009).

T1: Dnm1K41A (yeast, UniProt P54861 1-757, K41A)
T1 sequence (looked up): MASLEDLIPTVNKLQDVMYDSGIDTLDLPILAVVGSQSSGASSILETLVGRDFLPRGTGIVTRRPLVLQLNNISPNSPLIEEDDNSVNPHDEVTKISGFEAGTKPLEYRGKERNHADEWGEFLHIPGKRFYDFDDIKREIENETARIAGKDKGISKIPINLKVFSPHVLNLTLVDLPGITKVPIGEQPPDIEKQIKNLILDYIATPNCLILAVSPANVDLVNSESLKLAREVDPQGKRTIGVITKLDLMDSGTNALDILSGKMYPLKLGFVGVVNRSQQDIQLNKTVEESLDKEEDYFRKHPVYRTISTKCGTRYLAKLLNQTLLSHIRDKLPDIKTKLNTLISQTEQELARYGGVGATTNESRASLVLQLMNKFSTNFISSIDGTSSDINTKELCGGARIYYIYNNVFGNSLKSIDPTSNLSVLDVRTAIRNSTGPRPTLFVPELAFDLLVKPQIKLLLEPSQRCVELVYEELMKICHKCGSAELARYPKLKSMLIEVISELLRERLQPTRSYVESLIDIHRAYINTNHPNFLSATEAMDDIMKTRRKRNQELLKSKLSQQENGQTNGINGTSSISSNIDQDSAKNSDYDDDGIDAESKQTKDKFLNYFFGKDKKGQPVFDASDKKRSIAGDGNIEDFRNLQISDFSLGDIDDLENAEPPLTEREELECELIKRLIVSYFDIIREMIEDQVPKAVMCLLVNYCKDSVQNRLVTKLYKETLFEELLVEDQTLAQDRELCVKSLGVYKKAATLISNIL

B1: Mdv1 (natural protein, yeast, UniProt P47025 1-714, looked up)
chain: MSVNDQITHIGKTLSTTASAFLNYQKSNSNTQDVLTNNGPYKNLLSNTVNNASSTSYFYKRTEHGRFVKNASNTFEDIYSKTRRGDVFRNKFTDNKTCFRMLTYISDDLLNEIPTKEGLKSDADGKLLTEGGENENLRKNASKKETSLFQGFKSYLPIAELAIENTERLNYDTNGTSGTVGAKDVMSKTNERDEIHTELPNFQDSFLIPPGVETKKISSSYSPSALKSFSQTLVNSLEFLNIQKNSTLSEIRDIEVEVENLRQKKEKLLGKIANIEQNQLLLEDNLKQIDDRLDFLEEYGLEVIEANSDENAEDDGMSERKALKNDAIRNEGVTTESISSEASNLPPRRRQQLRDDNSLNRLGAFYSKSKKRHRKSFPTFQQLYEPGTKIGSIMSTHDDFLTCLDFDAPFGTLCTAGYLDHTVKIWDLSKQNKIGELAGHLATINCMQINRDYGTLVTGGRDAALKLWNLNLAQQLYQETQNLTSPTNHIDSPCVHTFEAHTDEVTALSLDPSFLVSGSQDRTIRQWDLRSGKCLQTIDLSFANVLTTSTNVDLSKSTLLTQRNERPSIGALQSFDAALATGTKDGVVRLWDLRSGKVIRTLKGHTDAITSLKFDSACLVTGSYDRTVRIWDLRTGLLNKFHAYSAPVLSLDLFQENAAVVVADEPSVQIYDSEKDESWSCVEQGNETSVSTVKYKENYMVEGRENGDVNIWAV
B2: Dnm1 (enzyme, yeast, UniProt P54861 1-757, looked up)
chain: T1 sequence (looked up) with A41K

Data set [1] concerns the molecule itself. Nature of the data set: cross-linking.
The target in data set [2] is T1, Dnm1K41A. Nature of the data set: liposome flotation.
The target of data set [3] is B2. The data set can be described thus: cell-based or functional assay.
Data set [4] concerns the molecule itself. Nature of the data set: SEC + other: sucrose gradient sedimentation.
Data set [5] deals with the molecule itself. The data set can be described thus: negative-stain electron microscopy.

Residue numbers refer to the chain shown, from its start. Several values for one entry are separate records, joined by “and”; a condition that tells them apart may be missing. Identical values can stand only once.

Usually stoichiometry N stands for the number of molecules, sites or subunits per partner or assembly. For B1, the “stoichiometry N” value in data set [1] was 4 and 6; in data set [4], 2. Also, in data set [2], the binding result was “binds”. Besides, in data set [3], the “amount of GTP cross-linked to Dnm1 by ultraviolet light on addition of Mdv1” value was 1.4 fold.

Consider B2, for which, in data set [5], the binding result is given as “binds”.
